{
  "source": "paper PMC6319605",
  "about": "(Nature microbiology, 2018)",
  "binders": {"B1": {"name": "Chlamydia trachomatis ChlaDUB1 (130-401) (enzyme)", "chain": "PVKTQEDLLPLVPEQVFVEMYEDMARRQTIEALVPAWDSDIIFKCLCYFHTLYPGLIPLETFPPATIFNFKQKIISILEDKKAVLRGEPIKGPLPICCSKENYRRHLQRTTLLPVFMWYHPTPKTLSDTMQTMKQLAIKGSVGASHWLLVIVDIQARRLVYFDSLYNYVMPPENMKKELQSFAQQLDQVYPAYDSKKFSVKIAAKEVIQRGSGSSCGAWCCQFLHWYLKDPLTDALNDLPVDSVERHENLASFVQACEAAVQDLPELSWPEA", "modifications": "covalently linked to one Ub molecule through the Ub-propargylamide probe (in the enzymatic S1 site)"}},
  "molecular_target": "Ubiquitin (Ub-propargylamide activity-based probe) (UniProt P0CG48 1-76, C-terminal propargylamide (Ub-PA), covalently linked to ChlaDUB1)",
  "test": "crystal structure",
  "data": [
    {"binder": "B1", "values": [
      {"measurement": "binding result", "value": "binds"}
    ]}
  ]
}
